Where a chain is given by its changes, count along the chain named.

B1: Ab301 (antibody, V domains shown)
VH: EVKLEASGGGLVQPGMSVKLSCTTSGFTFSDYWMEWVRQAPGKGLEWVAEIRNKVNNYATYYGKSVKGRFTISRDDSKSIVYLQMNSIRSEDTGIYYCNTLRLFAYWGQGTLVTVSA
VL: DIVMTQAPLSISVTPGESPSMSCRSSKSLLHRNGITYVYWYLQKPGKSPQLLIYRMSTLASGVPDRFSGSGSETDFTLKINKVEAEDVGIYYCGQLLENPYTFGAGTRLEIK
B2: Ab303 (antibody, V domains shown)
VH: EVQLVESGGGVVQPGRSLRLSCAASGFTFSDYWMEWVRQAPGKGLEWVAEIRNKVNNYATYYGKSVKGRFTISRDNSKNTLYLQMNSLRAEDTAVYYCNTLRLFAYWGQGTLVTVSS
VL: DIQMTQSPSSLSASVGDRVTITCRSSKSLLHRQGITYVYWYQQKPGKVPKLLIYRMSTLASGVPSRFSGSGSGTDFTLTISSLQPEDVATYYCGQLLENPYTFGQGTKLEIK
B3: Ab304 (antibody, V domains shown)
VH: B2 VH with V11L, R16G, A49G, N76E, T80S, R89K, A90T, L112T
VL: B2 VL
B4: Ab302 (antibody, V domains shown)
VH: B2 VH with V11L, Q13K, R16G, R19K, N76D, R89K, A90T
VL: B2 VL
B5: Ab305 (antibody, V domains shown)
VH: B2 VH with V11L, A23T, A49G, N76D, N79S, T80I, L81A, R89K, A90T, S117A
VL: B2 VL

For one experiment, the target named is human Axl expressed on the surface of cells (human, UniProt P30530 26-894). The experiment in a line: flow cytometry. Background: A flow cytometer gives signals particle by particle.
human Axl expressed on the surface of cells, sequence (P30530 26-894): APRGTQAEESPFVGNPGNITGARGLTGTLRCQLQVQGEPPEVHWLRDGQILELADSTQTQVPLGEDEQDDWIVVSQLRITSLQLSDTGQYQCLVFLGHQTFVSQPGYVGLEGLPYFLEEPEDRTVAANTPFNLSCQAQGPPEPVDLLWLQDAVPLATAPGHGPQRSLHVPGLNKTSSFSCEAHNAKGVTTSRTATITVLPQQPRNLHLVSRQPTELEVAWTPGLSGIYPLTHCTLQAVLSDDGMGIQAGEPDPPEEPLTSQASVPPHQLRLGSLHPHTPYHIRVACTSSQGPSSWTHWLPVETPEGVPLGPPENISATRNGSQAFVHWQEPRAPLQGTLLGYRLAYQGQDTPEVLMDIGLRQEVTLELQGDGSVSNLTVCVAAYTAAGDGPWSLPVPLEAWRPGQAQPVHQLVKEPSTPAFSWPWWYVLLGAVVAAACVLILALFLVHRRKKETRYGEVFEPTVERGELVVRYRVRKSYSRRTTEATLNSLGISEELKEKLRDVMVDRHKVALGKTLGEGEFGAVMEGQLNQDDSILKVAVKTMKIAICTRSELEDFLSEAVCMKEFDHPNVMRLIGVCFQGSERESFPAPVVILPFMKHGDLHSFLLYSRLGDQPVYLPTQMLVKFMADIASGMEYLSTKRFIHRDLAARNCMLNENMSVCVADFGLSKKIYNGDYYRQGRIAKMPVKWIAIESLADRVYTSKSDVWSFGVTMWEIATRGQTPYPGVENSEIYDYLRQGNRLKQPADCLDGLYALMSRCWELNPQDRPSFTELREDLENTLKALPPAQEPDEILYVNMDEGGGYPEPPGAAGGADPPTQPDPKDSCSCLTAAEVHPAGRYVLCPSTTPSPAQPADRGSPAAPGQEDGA
The term EC50 denotes the midpoint of the concentration-response curve. With B1, the EC50 was 0.025 µg/mL.

The target of another experiment is Axl (human, UniProt P30530 26-449, biotinylated (site not stated)). The experiment in a line: BLI. A general note: BLI is a label-free optical method that tracks binding on a fibre tip over time.
Axl, sequence (P30530 whole entry): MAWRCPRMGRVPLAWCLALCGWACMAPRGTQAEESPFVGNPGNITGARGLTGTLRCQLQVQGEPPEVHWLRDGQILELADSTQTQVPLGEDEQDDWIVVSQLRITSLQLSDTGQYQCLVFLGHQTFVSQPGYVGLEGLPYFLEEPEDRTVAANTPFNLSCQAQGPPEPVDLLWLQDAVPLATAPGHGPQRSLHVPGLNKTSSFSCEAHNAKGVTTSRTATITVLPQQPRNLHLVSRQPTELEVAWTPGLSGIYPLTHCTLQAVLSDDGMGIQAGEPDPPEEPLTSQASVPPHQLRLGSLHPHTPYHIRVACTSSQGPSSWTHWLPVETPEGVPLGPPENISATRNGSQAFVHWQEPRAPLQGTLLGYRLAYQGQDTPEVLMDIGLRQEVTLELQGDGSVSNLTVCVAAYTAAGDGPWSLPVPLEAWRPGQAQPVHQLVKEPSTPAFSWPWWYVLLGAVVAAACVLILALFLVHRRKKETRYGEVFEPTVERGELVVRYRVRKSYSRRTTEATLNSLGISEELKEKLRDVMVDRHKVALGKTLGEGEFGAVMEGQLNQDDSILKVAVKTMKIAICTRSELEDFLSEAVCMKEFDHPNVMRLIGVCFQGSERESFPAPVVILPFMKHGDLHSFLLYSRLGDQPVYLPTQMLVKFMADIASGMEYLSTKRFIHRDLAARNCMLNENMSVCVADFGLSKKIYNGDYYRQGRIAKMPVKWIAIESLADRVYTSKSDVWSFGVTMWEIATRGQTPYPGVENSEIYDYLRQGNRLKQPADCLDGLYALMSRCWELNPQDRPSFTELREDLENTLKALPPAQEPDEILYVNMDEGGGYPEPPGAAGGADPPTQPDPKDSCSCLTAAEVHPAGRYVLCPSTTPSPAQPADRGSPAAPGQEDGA
In general, Kd refers to the equilibrium constant for the complex coming apart. Higher therefore signals lower affinity. The molecule B2 returned a Kd of 0.386 nM.
The same measure, in the same setting: then B3, with 0.909 nM; and B4, with 0.705 nM; and B5, with 1.55 nM.
Same read-out and setting: then B1, with 0.466 nM.

A further experiment deals with recombinant human Axl-msFc (human, UniProt P30530 26-449). As to the kind of experiment: ELISA; 4-P fit parameter C. Background: An ELISA detects its analyte on a solid surface through an enzyme-linked reagent.
recombinant human Axl-msFc, sequence (P30530 26-449): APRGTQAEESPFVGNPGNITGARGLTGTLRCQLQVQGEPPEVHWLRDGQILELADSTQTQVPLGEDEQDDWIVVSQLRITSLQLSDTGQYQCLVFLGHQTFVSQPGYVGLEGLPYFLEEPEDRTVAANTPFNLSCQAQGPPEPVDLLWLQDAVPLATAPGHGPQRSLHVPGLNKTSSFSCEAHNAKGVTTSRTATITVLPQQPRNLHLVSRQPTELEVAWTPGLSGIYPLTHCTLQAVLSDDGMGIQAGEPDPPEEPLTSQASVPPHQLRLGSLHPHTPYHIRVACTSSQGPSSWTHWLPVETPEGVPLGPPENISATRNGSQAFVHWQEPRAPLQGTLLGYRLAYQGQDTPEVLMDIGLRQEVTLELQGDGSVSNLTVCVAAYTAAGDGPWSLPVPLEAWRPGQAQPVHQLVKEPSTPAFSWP
B2: the EC50 amounted to 0.019 µg/mL.
The same measure, in the same setting: the figure for B3 is 0.018 µg/mL.
Same read-out and setting: the figure for B4 is 0.02 µg/mL; for B5 it is 0.019 µg/mL.
The same measure, in the same setting: then B1, with 0.019 µg/mL.

These data come from patent US20220177593A1 (published 2022).
